Source: patent publication US7087420B1, “Microbial β-glucuronidase genes, gene products and uses thereof” (Cambia, priority 1997, dated 2006)

Substrate: O=C(O)[C@H]1O[C@@H](Oc2ccc([N+](=O)[O-])cc2)[C@H](O)[C@@H](O)[C@@H]1O
Experiment: Kinetics of pNPG hydrolysis by E. coli GUS (spectrophotometric p-nitrophenol release)
Assay type: biochemical, Escherichia coli
Conditions: other: E. coli GUS, substrate pNPG, 37° C., pH 7.0
Protocol: One such substrate is p-nitrophenyl β-D-glucuronide (pNPG), which when cleaved by GUS releases the chromophore p-nitrophenol. At a pH greater than its pKa (approximately 7.15), the ionized chromophore absorbs light at 400–420 nm, therefore appears in the yellow range of visible light. Briefly, reactions are performed in 50 mM Na3PO4 pH 7.0, 10 mM 2-ME, 1 mM EDTA, 1 mM pNPG, and 0.1% Triton® X-100 at 37° C. The reactions are terminated by the addition of 0.4 ml of 2-amino-2-methylpropanediol, and absorbance measured at 415 nm against a substrate blank. Under these conditions, the molar extinction coefficient of p-nitrophenol is assumed to be 14,000: One unit is defined as the amount of enzyme that produces 1 nmole of product/min at 37° C.
Turnover number is calculated as nmoles of pNPG converted to p-nitrophenol per min per μg of purified protein.

B1: E. coli β-glucuronidase (E. coli GUS, GUS^Eco), wild type, SEQ ID NO: 23 (Escherichia coli K-12) (protein)
chain: MLRPVETPTREIKKLDGLWAFSLDRENCGIDQRWWESALQESRAIAVPGSFNDQFADADIRNYAGNVWYQREVFIPKGWAGQRIVLRFDAVTHYGKVWVNNQEVMEHQGGYTPFEADVTPYVIAGKSVRITVCVNNELNWQTIPPGMVITDENGKKKQSYFHDFFNYAGIHRSVMLYTTPNTWVDDITVVTHVAQDCNHASVDWQVVANGDVSVELRDADQQVVATGQGTSGTLQVVNPHLWQPGEGYLYELCVTAKSQTECDIYPLRVGIRSVAVKGEQFLINHKPFYFTGFGRHEDADLRGKGFDNVLMVHDHALMDWIGANSYRTSHYPYAEEMLDWADEHGIVVIDETAAVGFNLSLGIGFEAGNKPKELYSEEAVNGETQQAHLQAIKELIARDKNHPSVVMWSIANEPDTRPQGAREYFAPLAEATRKLDPTRPITCVNVMFCDAHTDTISDLFDVLCLNRYYGWYVQSGDLETAEKVLEKELLAWQEKLHQPIIITEYGVDTLAGLHSMYTDMWSEEYQCAWLDMYHRVFDRVSAVVGEQVWNFADFATSQGILRVGGNKKGIFTRDRKPKSAAFLLQKRWTGMNFGEKPQQGGKQ
notes: pNPG substrate; functional homotetramer
- Km: 120 μM pNPG μM
- Vmax: 80 nmol/min/µg
